T1: SigI1C K209E/R217E (Clostridium thermocellum ATCC 27405, UniProt A3DBH0 141-249, K209E;R217E)
T1 sequence: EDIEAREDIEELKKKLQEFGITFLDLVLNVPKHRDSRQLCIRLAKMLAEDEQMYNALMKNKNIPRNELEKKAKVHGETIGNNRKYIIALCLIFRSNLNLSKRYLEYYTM

T2: SigI1C (Clostridium thermocellum ATCC 27405, UniProt A3DBH0 141-249)
T2 sequence: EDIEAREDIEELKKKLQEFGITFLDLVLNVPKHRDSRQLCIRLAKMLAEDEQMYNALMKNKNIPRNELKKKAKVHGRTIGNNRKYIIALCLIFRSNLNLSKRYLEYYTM

T3: SigI1C, C-terminal domain of σI factor SigI1 (C. thermocellum ATCC 27405, UniProt A3DBH0 141-249)
T3 sequence: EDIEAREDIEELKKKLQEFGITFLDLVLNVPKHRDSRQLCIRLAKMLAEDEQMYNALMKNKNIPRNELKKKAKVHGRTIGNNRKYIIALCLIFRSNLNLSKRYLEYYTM


molecular target: T1, SigI1C K209E/R217E; experiment: EMSA

Binder	binding result
PSigI1 -35 region (dsDNA) DNA 1: ATCGATAATATACACAAAAA DNA 2: TTTTTGTGTATATTATCGAT	no binding

molecular target: T2, SigI1C; experiment: EMSA

Binder	binding result
PSigI1 -35 region (dsDNA) DNA 1: ATCGATAATATACACAAAAA DNA 2: TTTTTGTGTATATTATCGAT	binds

molecular target: T3, SigI1C, C-terminal domain of σI factor …; experiment: SPR

Binder	Kd
RsgI1N, N-terminal cytoplasmic inhibitory domain of anti-σI factor RsgI1, wild type (domain or fragment, C. thermocellum ATCC 27405) MNRLGIIYEIQGMKAVVLTSEGEFLIIRRRKDMKVGQQVSFENEDIYNVRGK	0.011 nM
RsgI1N Y8L-E9K (domain or fragment, C. thermocellum ATCC 27405) MNRLGIILKIQGMKAVVLTSEGEFLIIRRRKDMKVGQQVSFENEDIYNVRGK	0.16 nM
RsgI1N V35I (domain or fragment, C. thermocellum ATCC 27405) MNRLGIIYEIQGMKAVVLTSEGEFLIIRRRKDMKIGQQVSFENEDIYNVRGK	0.023 nM
RsgI1N Y8L (domain or fragment, C. thermocellum ATCC 27405) MNRLGIILEIQGMKAVVLTSEGEFLIIRRRKDMKVGQQVSFENEDIYNVRGK	0.084 nM
RsgI1N V16K (domain or fragment, C. thermocellum ATCC 27405) MNRLGIIYEIQGMKAKVLTSEGEFLIIRRRKDMKVGQQVSFENEDIYNVRGK	2.4 nM
RsgI1N E9K (domain or fragment, C. thermocellum ATCC 27405) MNRLGIIYKIQGMKAVVLTSEGEFLIIRRRKDMKVGQQVSFENEDIYNVRGK	0.097 nM
RsgI1N V16I (domain or fragment, C. thermocellum ATCC 27405) MNRLGIIYEIQGMKAIVLTSEGEFLIIRRRKDMKVGQQVSFENEDIYNVRGK	0.36 nM
RsgI1N Y8I (domain or fragment, C. thermocellum ATCC 27405) MNRLGIIIEIQGMKAVVLTSEGEFLIIRRRKDMKVGQQVSFENEDIYNVRGK	0.45 nM
RsgI1N L18F (domain or fragment, C. thermocellum ATCC 27405) MNRLGIIYEIQGMKAVVFTSEGEFLIIRRRKDMKVGQQVSFENEDIYNVRGK	0.0031 nM
RsgI1N Y8L-V35R (domain or fragment, C. thermocellum ATCC 27405) MNRLGIILEIQGMKAVVLTSEGEFLIIRRRKDMKRGQQVSFENEDIYNVRGK	0.04 nM
RsgI1N E23K (domain or fragment, C. thermocellum ATCC 27405) MNRLGIIYEIQGMKAVVLTSEGKFLIIRRRKDMKVGQQVSFENEDIYNVRGK	0.36 nM
RsgI1N Y8L-E9K-V35R (domain or fragment, C. thermocellum ATCC 27405) MNRLGIILKIQGMKAVVLTSEGEFLIIRRRKDMKRGQQVSFENEDIYNVRGK	9.3 nM
RsgI1N L18I (domain or fragment, C. thermocellum ATCC 27405) MNRLGIIYEIQGMKAVVITSEGEFLIIRRRKDMKVGQQVSFENEDIYNVRGK	0.67 nM
RsgI1N E9G (domain or fragment, C. thermocellum ATCC 27405) MNRLGIIYGIQGMKAVVLTSEGEFLIIRRRKDMKVGQQVSFENEDIYNVRGK	0.071 nM
RsgI1N E9K-E23K (domain or fragment, C. thermocellum ATCC 27405) MNRLGIIYKIQGMKAVVLTSEGKFLIIRRRKDMKVGQQVSFENEDIYNVRGK	6.4 nM
RsgI1N V35K (domain or fragment, C. thermocellum ATCC 27405) MNRLGIIYEIQGMKAVVLTSEGEFLIIRRRKDMKKGQQVSFENEDIYNVRGK	0.0065 nM
RsgI1N E9K-E21K (domain or fragment, C. thermocellum ATCC 27405) MNRLGIIYKIQGMKAVVLTSKGEFLIIRRRKDMKVGQQVSFENEDIYNVRGK	0.02 nM
RsgI1N F24I (domain or fragment, C. thermocellum ATCC 27405) MNRLGIIYEIQGMKAVVLTSEGEILIIRRRKDMKVGQQVSFENEDIYNVRGK	0.19 nM
RsgI1N E21K (domain or fragment, C. thermocellum ATCC 27405) MNRLGIIYEIQGMKAVVLTSKGEFLIIRRRKDMKVGQQVSFENEDIYNVRGK	0.016 nM

Reference: publication PMC6582324 (Nucleic Acids Research, 2019)
